Tested on: MS2 coat protein
Experiment: apparent KD of MS2 coat protein; designed switch direction (-1 OFF switch, 1 ON switch): -1; higher = weaker reporter binding
In short: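 RNA switches sharing common flanks were transcribed by stalled E. coli RNA polymerase on Illumina chips. A doubling series of SNAP-549-labelled MS2 coat protein, from 0.7 or 1.5 nM to 3 µM, was applied in Tris-HCl pH 7.5 buffer with KCl, MgCl2, BSA, DTT, tRNA and Tween-20. Each step lasted 0.8–1.5 h at the bottom of the series and 10–20 min at the top. Normalised cluster fluorescence was curve-fitted, giving apparent KD as the per-design median over clusters.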

[1] = input ligand: microRNA oligo, concentration not stated
[2] = Eterna round: R95, input ligand: microRNA oligo, concentration not stated
[3] = Eterna round: R95, input ligand: FMN 200 uM
[4] = Eterna round: R95, input ligand: none

Sequence	apparent KD of MS2 coat protein (input ligand: FMN 200 uM)	apparent KD of MS2 coat protein [1]	apparent KD of MS2 coat protein (input ligand: none)	apparent KD of MS2 coat protein [2]	apparent KD of MS2 coat protein [3]	apparent KD of MS2 coat protein [4]
AGCAUGUAAGGAUAUGCAAGUGGCACGGAUAGUACCAGAAAGCAGAAGGUACAUGAGGAUCACCCAUGUGCUCC [Anenen] (Eterna round: R96, puzzle: Exclusion 4)	0.233 µM	0.0672 µM	0.0801 µM	–	–	–
GGAUUCCAGUGAGGAUAUCCAAAUAAAAGCCAUGGAGAAGGCACAUGAGGAUCACCCAUGUAGGGCAAUAACAGCGAACGCUGC [Erenlege] (Eterna round: R96, puzzle: Exclusion NG 1)	0.073 µM	0.0433 µM	0.0308 µM	–	–	–
AAUUUGUCAGGAUAUUGUUAGUUUAGUUGUUUGUAUUAGUUCGAGAAGGGACAUGAGGAUCACCCAUGUGAAAA [Ex4 #70] (Eterna round: R97, puzzle: Exclusion 4)	0.0392 µM	–	0.0534 µM	–	–	–
UAUUAGCAAGCGAGAUCCCACAUGAGGAUCACCCAUGUGCUCGUCUUAUAAGGUACUGUGACGAGAGUCACGGUACC [Mat - Sensor, turn-off var - Eli Mod - D17] (Eterna round: R97, puzzle: Sensor, turn-off variant 1)	0.0164 µM	–	0.0139 µM	–	–	–
ACAUGAGGAUCACCCAUGUCCGGCUGGUCUGUCUCGGCUGUCGAGGAUAUAGCACGGUAUCCGCGCUAGAAGGCGGGAGCCGGA [Aenatbe mod 86] (Eterna round: R96, puzzle: Exclusion NG 3)	0.12 µM	0.0471 µM	0.0388 µM	–	–	–
CCAGGCAGGCUAUUUGCUCACAUGAGGAUCACCCAUGUUGUAUCCCUUGAAUCUAGAUGGUUCAGGCUUAAUUAUUU [Eternabot (L2) Solution 28] (Eterna round: R97, puzzle: Sensor, turn-off variant 1)	0.0475 µM	–	0.066 µM	–	–	–
AUGUGCACGCUGCGGUCCUACAUGAGGAUCACCCAUGUGGUCUGGUGGCGUGGGUCACCGGACUUGGCUCGUCUUGG [salish99_S_TOV1_R5_057] (Eterna round: R97, puzzle: Sensor, turn-off variant 1)	0.0224 µM	–	0.0243 µM	–	–	–
AAUCAGUGUGUGAGGAUAUUGGUGGAGUGACUUAUUAAGAAGGCACAUGAGGAUCACCCAUGUGGGAAGUCAGG [JR_BMEx4_Sub017] (Eterna round: R97, puzzle: Brourd's mod of Exclusion 4)	0.0139 µM	–	0.0148 µM	–	–	–
CAAAGUUGGUAAGGAUAUCCCACAUUAUUCUGACCCGUGCAAGCUACAUGAGGAUCACCCAUGUGGGAGAAGGUGCGUUAAAGU [Design 2] (Eterna round: R96, puzzle: Exclusion NG 2)	0.261 µM	0.164 µM	0.196 µM	–	–	–
UCUUAUUGCAAGGAUAUGCAAAUUAUUUUUUAAGCAGAAGGUGCAACAUGAGGAUCACCCAUGUUUCCGGGAAA [JR_E6_Sub039] (puzzle: Exclusion 6)	–	–	–	0.0239 µM	–	–
UAUUCUGCGCUCGUCUUAUACAUGAGGAUCACCCAUGUUCUCAAGGUCUUAUGUACUGACACGAAAGUGUUAGUAAU [AK-miRNA-r3-3] (Eterna round: R97, puzzle: Sensor, turn-off variant 1)	0.0363 µM	–	0.0416 µM	–	–	–
GGGAAACAUGAGGAUCACCCAUGUAAUGAGCAUGGAAUCCCAGAGGAUAUCGCAUGUAUGAAUGUCGAGAAGGCUGACGUUAAA [Eternabot solution 6] (Eterna round: R96, puzzle: Exclusion NG 3)	1.03 µM	0.198 µM	0.207 µM	–	–	–
GGUCCCAGGCAGGAUAUGCAAGCCACACAUGGCGCAGAAGGGCUCACAUGAGGAUCACCCAUGUAUUUCGUUUU [Eternabot (L1) Solution 19] (Eterna round: R97, puzzle: Exclusion 6)	0.086 µM	–	0.0423 µM	–	–	–
UAGCACGGAGGAUAUUGGCUCGCACACAUGAGGAUCACCCAUGUGACUUUAUACUUCCGCUAAGAAGGCCGUGUGG [Eternabot (L1) Solution 93] (Eterna round: R97, puzzle: Exclusion 5)	0.0132 µM	–	0.0143 µM	–	–	–
CUGAGCUGAGGAUAUACAUGAGGAUCACCCAUGUAAAGCAGCUUGCGUACAAGCAGAUGUAGAAGGCAGUUCGG [Mod of JL 17 - Jieux - Exclusion 3] (Eterna round: R97, puzzle: Exclusion 3)	0.0241 µM	–	0.0147 µM	–	–	–
CAAUGCGGAGGAUAUACAUUUAUGACUGCCACAGUACCGAGACAUGAGGAUCACCCAUGUAGAAGGCCGAUUAA [EX2 B.9] (Eterna round: R97, puzzle: Exclusion 2)	0.0204 µM	–	0.0167 µM	–	–	–

Sequence	apparent KD of MS2 coat protein (input ligand: FMN 200 uM)	apparent KD of MS2 coat protein [1]	apparent KD of MS2 coat protein (input ligand: none)	apparent KD of MS2 coat protein [2]	apparent KD of MS2 coat protein [3]	apparent KD of MS2 coat protein [4]
CUGAGCAGACGGAGAUCCAACAUGAGGAUCACCCAUGUCUCAAAAGCUUUUUGCUUAAACGUCUUAUCUCUGUUCAC [Esquitian 5] (Eterna round: R97, puzzle: Sensor, turn-off variant 1)	0.0357 µM	–	0.0338 µM	–	–	–
AUGUUGCGAGGAUAUAUAAGGGUAUAUUCUUAAGAUAUGGAACAUGAGGAUCACCCAUGUAGAAGGUGCAUAAC [JR_Ex2_Sub043] (Eterna round: R97, puzzle: Exclusion 2)	0.0791 µM	–	0.073 µM	–	–	–
GUCAGCUCGUGAGGAUAUAUUAACAUGAGGAUCACCCAUGUAAGAUCAGGCUUCGGCCAAUGUUAAUAGAAGGCACGAGCUGAC [ENG2/12-A1] (Eterna round: R96, puzzle: Exclusion NG 2)	0.739 µM	0.0389 µM	0.0729 µM	–	–	–
AACCGGGCGGCAGGAUAUCCAGAUUAAUUGUGGUAGUCCUGACAUGAGGAUCACCCAUGUGAAAAGGAGAAGGGCCGGAAAUUA [Onona] (Eterna round: R96, puzzle: Exclusion NG 2)	0.437 µM	0.0641 µM	0.122 µM	–	–	–
UCUGUUUUGCGAGGAUAUCGACCAUUCCUCUUAACAUGAGGAUCACCCAUGUGCUAAACCUACAACGAGAAGGCGCUCAUACUC [JR_ExcNG2_Sub067] (Eterna round: R96, puzzle: Exclusion NG 2)	0.0608 µM	0.05 µM	0.0519 µM	–	–	–
CGUCCUCUAGUCAGGAUAUUGUCUCGGAUACGAAACAAGAAGGGACAUGAGGAUCACCCAUGUAAUGAGGACGA [Malc #30 mod 15] (puzzle: Brourd's mod of Exclusion 4)	–	–	–	0.0331 µM	0.0201 µM	0.0338 µM
UUGUUGUAUGUAGGAUAUGCAUAUUAUUAUUAUGCAGAAGGACAUGAGGAUCACCCAUGUAUAUUAUUAUUAUAUAUUAUAUAU [Title] (Eterna round: R96, puzzle: Exclusion NG 1)	–	0.0235 µM	–	–	–	–
GCCGCGCGAGGAUAUACAUGAGGAUCACCCAUGUGAAAUUAUAGUGAGGAAAUGAAAAGUAGAAGGCGCGCGGA [Mod of Mat 19 - Jieux - Exclusion 3] (Eterna round: R97, puzzle: Exclusion 3)	0.258 µM	–	0.037 µM	–	–	–
UAAAUAAAUGUAGGAUAUCUGCACGUUUAGUGCAGAGAAGGACAUGAGGAUCACCCAUGUAUAGUAGCUUCGGCUACAAAUAAU [ENG1-C2] (Eterna round: R96, puzzle: Exclusion NG 1)	0.115 µM	0.0422 µM	0.0763 µM	–	–	–
GGUACUAACACGAAAGUGUUAGUACAAUAAGCUUGUGAAACAUGAGGAUCACCCAUGUCCUCAUAAGCUCGUCUUAA [salish99_TOv2_r3_004] (puzzle: Sensor v3, turn-off variant 2)	–	–	–	0.238 µM	0.0144 µM	0.0133 µM
GUAAAGUGAGGAUAUGGUAAAUUAAUUAUUUAGUAAUUAAUCCAGAAGGCACAUGAGGAUCACCCAUGUAAAUG [Mat - Exclusion 4 - D95] (puzzle: Exclusion 4)	–	–	–	0.0321 µM	–	–
AAUAAUUGUGACAUGGGCGACAUGAGGAUCACCCAUGUUACAAGCUUGUUGCUCGUCUUAUAAUUAACCCAUGUCAC [LRO Sensor-off var1-22 mod of Stov1-13-A1 by Brourd] (Eterna round: R97, puzzle: Sensor, turn-off variant 1)	0.0163 µM	–	0.0152 µM	–	–	–
CUGAGGUAGCGGUCCUAUGACAUGAGGAUCACCCAUGUACCUUGCUUCGAGCAUUUUGCUCGUCUUAUGAUUCUCGG [Mat - Sensor v3 - turn-off var 1 - JL Mod - D35] (puzzle: Sensor v3, turn-off variant 1)	–	–	–	0.481 µM	0.45 µM	0.507 µM
GGACCGAUAGGAUAUGUCGUUGCAUACAUGAGGAUCACCCAUGUGAACCCUUGGUGAACUGCAGAAGGAUUGCGCA [Eternabot (L1) Solution 41] (Eterna round: R97, puzzle: Exclusion 5)	0.24 µM	–	0.221 µM	–	–	–
GCACUCUGCUGGCAGUCGGCUUGUCUUAGAAGGAUAGAUACAUGAGGAUCACCCAUGUUUCGGGUGUCAAUUCUAGC [JR_Sensorv2_tov2_Sub1308] (Eterna round: R96, puzzle: Sensor v2, turn-off variant 2)	0.0439 µM	0.0345 µM	0.0426 µM	–	–	–
CAUUACUACAAGCUAAGGGACAUGAGGAUCACCCAUGUUCGUCUUAUUGAUCUAGGUACGCUGACGUACCUAGAUCU [JL-sv1-2.23 Brourd mod] (puzzle: Sensor v3, turn-off variant 1)	–	–	–	0.0201 µM	0.0158 µM	0.0146 µM

Reference: the supplement of paper PMC9170038
